# Experimental data from the supplement of paper PMC10567573.
# ± gives the standard deviation.
# Experiment: protein stability index of a GFP-peptide fusion (GPS, HEK-293T) (PSI 1-6); higher = more stable
# [1] = treatment: DMSO, c terminus: a fixed tail appended
# [2] = treatment: MLN4924 1 uM, 8 h, c terminus: a fixed tail appended
# 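Also: 24-mer peptide tiles fused after GFP, lentivirally expressed, FACS-sorted into six equal bins by GFP/DsRed ratio, decoded by Illumina sequencing, PSI is the read-weighted mean bin number.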
Sequence,protein stability index [1],protein stability index [2],"protein stability index (treatment: DMSO, c terminus: native)","protein stability index (treatment: MLN4924 1 uM, 8 h, c terminus: native)"
LAHLGRHMEALEIAANLENKATNT [C8orf76],4.22 ± 0.17,4.29 ± 0.37,,
IIEYRGKFMLREQFEANGYFFKRP [KMT2E],2.31 ± 0.63,2.37 ± 0.36,,
GCNSVLIQFATPNDFCSFYNILKT [CARM1],3.23 ± 0.62,2.84 ± 0.61,,
SQSLCLNKPTMSFKDYIQERSDPV [ETS2],3.54 ± 0.32,3.67 ± 0.53,,
EGHQEGLVELPASFRELLTFFCTN [SCNN1D],2.73 ± 0.36,2.71 ± 0.34,,
LELLVNNGADVNIQSKDGKSPLHM [ANKRD44],4.06 ± 0.23,4.01 ± 0.3,,
AGSCRLGSAGGLGSTLGGSSYSSC [KRT17],2.22 ± 0.3,2.27 ± 0.31,,
HMESRMVTETEETQEKKAESKEPI [SDE2],5.48 ± 0.17,5.46 ± 0.47,,
SVSLDRCIKIWDVTSQATLLTITK [WDR88],2.43 ± 0.2,2.43 ± 0.21,,
AEEAEDHGRIPDPDDFVPPVPPPS [FAM189A2],5.52 ± 0.24,5.51 ± 0.06,,
FDSSRQRAEGTDIPTVKPLKPRPE [ZC2HC1A],5.02 ± 0.099,5.09 ± 0.14,,
FLRQLPFRGDDGIFDDNFIEERKQ [SNX3],3.55 ± 0.27,3.82 ± 0.35,,
PSITRKRRYVASVSLHDRIYVIGG [KLHL12],2.24 ± 0.26,2.13 ± 0.4,,
DRTSHRLHTANLGDSGFLVVRGGE [PPTC7],4.08 ± 0.21,4.11 ± 0.27,,
NLLSIALYLLSGSIIAVAMQRGAR [POMT2],3.2 ± 0.36,3.34 ± 0.13,,
VHVSESSDDDEEEEENIGCEEKAK [ACBD3],5.55 ± 0.32,5.62 ± 0.12,,
DVIIEVNGVNVLDEPYEKVVDRIQ [PDZK1],3.73 ± 0.32,3.81 ± 0.97,,
AGFSPDCIMDDAINILQNEKSHQV [INTS4],4.13 ± 0.12,4.17 ± 0.18,,
DSEEDEKMEEDIKEEEEKDHNEAM [PCMTD1],5.81 ± 0.082,5.64 ± 0.2,,
VQQQKLAEERRRQNLQEEKERKLE [FAF2],4.87 ± 0.15,5.19 ± 0.43,,
FATRPGAIETAMEDLKGHVAETSG [TPRG1],4.45 ± 0.31,4.81 ± 0.19,,
GKIRRGAYALPAGLSAPARCLVRC [TRIB3],2.47 ± 0.23,2.7 ± 0.33,,
VFPAPVVGSGGATSGKLLLEADEL [ZBTB22],4.93 ± 0.25,4.73 ± 0.22,,

Sequence,protein stability index [1],protein stability index [2],"protein stability index (treatment: DMSO, c terminus: native)","protein stability index (treatment: MLN4924 1 uM, 8 h, c terminus: native)"
HHVPGGGNVKIDSQKLNFREHAKA [MAP2],4.3 ± 0.43,4.4 ± 0.27,,
IKEIDEHAPGVPRILVGNRLHLAF [RAB40C],2.21 ± 0.21,2.06 ± 0.28,,
AIGGTYLGPAFRGLKGRTLYPAVS [SPSB2],2.51 ± 0.16,2.69 ± 0.19,,
FIYYENMLLGVPRLRQLKVRNDSC [PKD2L1],2.33 ± 0.26,2.19 ± 0.3,,
RPYMCKECGKAFSQNSSLVQHERI [ZNF8],2.82 ± 0.16,3.24 ± 0.45,,
SLNSTFGSTNLTGLFFPPQLNGTA [NFE2L1],2.52 ± 0.35,2.92 ± 0.38,,
KRKLGLTALVGLRQNLSKSWLDVQ [TPD52L3],2.17 ± 0.71,2.16 ± 0.42,,
NFSTFIKCIFTQFRIILGDFDYNA [PKD2L1],2.98 ± 0.36,2.94 ± 0.41,,
RLGPLSAEGTTGLAPAGQTSEESR [TNXB],5.3 ± 0.36,5.41 ± 0.2,,
ETAPLTLESLPTDPLLLILSFLDY [FBXO3],2.36 ± 0.19,2.28 ± 0.19,,
DSNMPHFQTLQAIVSHFQKLFDVP [CEP70],2.38 ± 0.1,2.47 ± 0.22,,
QYPAGTQGEQLEVPERLLVVLDME [SPSB2],3.82 ± 0.45,3.69 ± 0.19,,
AQNDLDISRIKRGNTTLESTDTL [P2RY14],,,5.26 ± 0.17,5.25 ± 0.22
HLDRTSVSSLSEVEEVDMAEEFEQ [ELOA2],5.66 ± 0.34,5.48 ± 0.4,,
TLPAGADFLMCYSVAEGYYSHRET [CASP6],2.5 ± 0.15,2.51 ± 0.4,,
EQQHYFNTPFQLSIAPPEAEGVVL [PPTC7],3.29 ± 0.38,3.56 ± 0.43,,
FPAYTQSTASTTSTTNSTAAKPAA [ZNF207],4.68 ± 0.21,4.81 ± 0.25,,
EAAKQMRSRGKVLKTKDGKLPFCA [CPOX],3.89 ± 0.4,3.68 ± 0.23,,
IPKVELQISIYGVKILEPKTKEVQ [GULP1],2.46 ± 0.51,1.98 ± 0.23,,
PTGPRRGRDELGGGRRPGTSPALL [CDKN1A],4.624 ± 0.031,4.53 ± 0.061,,
MLSKGLKRKREEEEEKEPLAVDSW [SERTAD1],4.84 ± 0.25,4.87 ± 0.092,,
VLDSLLLTLLPQLQEAWQQRTPSP [RSAD1],2.85 ± 0.052,3.27 ± 0.43,,
